Assay results from patent US20110312881A1 (AMUNIX, published 2011).

Target: T1, XTEN_AM875-hGH (human, UniProt P01241 27-217)
T1 construct: Negative control in the IL-1 receptor ELISA
Assay: ELISA, plate-coated mouse IL-1R/Fc
Experimental: To evaluate the activity of the IL-1ra-containing XTEN fusion proteins, an ELISA based receptor binding assay was used. Here the wells of a Costar 3690 assay plate were coated overnight with 50 ng per well of mouse IL-1 receptor fused to Fc domain of human IgG (IL-1R/Fc, R&D Systems). Subsequently the wells were blocked with 3% BSA to prevent nonspecific interactions with the solid phase. After thoroughly washing the wells, a dilution series of either IL-1ra-XTEN_AM875, XTEN_AM875-IL-1ra, or IL-1ra (anakinra) was applied to the wells. The binding reaction was allowed to proceed for 2 hr at room temperature. Unbound Il-1ra was removed by repeated washing. The bound IL-1ra ad IL-1ra-XTEn fusions were detected with a biotinylated anti-human II-1ra antibody and a horseradish peroxidase-conjugated streptavidin. […] The absorbance of each well at 450 nm and 570 nm was recorded on a SpectrMax 384Plus spectrophotometer. The corrected absorbance signal (Abscorr=Abs₄₅₀ₙₘ−Abs₅₇₀ₙₘ) was plotted as a function of IL-1ra-XTEN or IL-1ra concentration to produce a binding isotherm as shown in FIG. 17.
To estimate the binding affinity of each fusion protein for the IL-1 receptor, the binding data was fit to a sigmoidal dose-response curve. From the fit of the data an EC50 (the concentration of IL-1ra or IL-1ra-XTEN at which the signal is half maximal) for each construct was determined.

T1 sequence (P01241 other isoform, or with tags, fused parts or gaps limits assumed): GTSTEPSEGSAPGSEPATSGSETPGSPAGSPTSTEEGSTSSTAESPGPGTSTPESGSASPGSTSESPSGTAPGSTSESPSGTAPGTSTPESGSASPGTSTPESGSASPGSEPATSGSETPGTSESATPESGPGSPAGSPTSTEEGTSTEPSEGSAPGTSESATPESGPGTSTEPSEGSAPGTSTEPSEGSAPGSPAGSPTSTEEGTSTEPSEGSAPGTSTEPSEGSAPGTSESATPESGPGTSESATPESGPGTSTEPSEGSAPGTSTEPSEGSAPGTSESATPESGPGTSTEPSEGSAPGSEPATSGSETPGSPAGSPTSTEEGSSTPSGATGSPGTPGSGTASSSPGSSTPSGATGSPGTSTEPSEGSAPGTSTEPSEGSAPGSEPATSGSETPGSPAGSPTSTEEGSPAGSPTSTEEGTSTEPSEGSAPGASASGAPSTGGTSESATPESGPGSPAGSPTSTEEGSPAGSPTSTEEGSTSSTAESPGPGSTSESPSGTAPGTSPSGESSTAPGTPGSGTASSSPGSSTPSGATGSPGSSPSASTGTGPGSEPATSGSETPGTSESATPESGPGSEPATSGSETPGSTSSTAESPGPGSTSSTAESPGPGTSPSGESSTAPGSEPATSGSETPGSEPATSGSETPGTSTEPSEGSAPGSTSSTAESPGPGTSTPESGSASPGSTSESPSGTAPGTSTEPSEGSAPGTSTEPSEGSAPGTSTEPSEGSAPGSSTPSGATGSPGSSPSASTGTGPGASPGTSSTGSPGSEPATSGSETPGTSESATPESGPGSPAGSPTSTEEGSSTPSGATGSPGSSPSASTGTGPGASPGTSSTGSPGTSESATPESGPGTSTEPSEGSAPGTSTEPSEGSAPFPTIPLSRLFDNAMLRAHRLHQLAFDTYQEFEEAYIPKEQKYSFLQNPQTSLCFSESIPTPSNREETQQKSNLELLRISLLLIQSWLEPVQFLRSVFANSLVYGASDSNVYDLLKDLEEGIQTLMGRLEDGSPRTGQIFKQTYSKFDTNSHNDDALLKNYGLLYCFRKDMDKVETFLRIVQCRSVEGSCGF

B1: mouse IL-1 receptor fused to Fc domain of human IgG (IL-1R/Fc, R&D Systems) (Fc fusion, UniProt P13504 20-338, looked up)
chain: LEIDVCTEYPNQIVLFLSVNEIDIRKCPLTPNKMHGDTIIWYKNDSKTPISADRDSRIHQQNEHLWFVPAKVEDSGYYYCIVRNSTYCLKTKVTVTVLENDPGLCYSTQATFPQRLHIAGDGSLVCPYVSYFKDENNELPEVQWYKNCKPLLLDNVSFFGVKDKLLVRNVAEEHRGDYICRMSYTFRGKQYPVTRVIQFITIDENKRDRPVILSPRNETIEADPGSMIQLICNVTGQFSDLVYWKWNGSEIEWNDPFLAEDYQFVEHPSTKRKYTLITTLNISEVKSQFYRYPFICVVKNTNIFESAHVQLIYPVPDFK
notes: Bought reagent, coated on the plate at 50 ng per well; not shown: Fc domain of human IgG
Question: Does B1 bind?
Answer: no binding
